{"source": "paper PMC4827828", "about": "“Cupincin: A Unique Protease Purified from Rice (Oryza sativa L.) Bran Is a New Member of the Cupin Superfamily” (PLoS ONE, 2016)", "target": "the molecule itself", "test": "SEC; analytical gel filtration on Progel-TSK W-3047 (HPLC), 0.1 M sodium phosphate buffer pH 7.0, 1 mL/min; calibrated with standards of 6.5-160 kDa; apparent mass 135.33 ± 3.5 kDa against 48.5 kDa from the sequence"}
{"protein": "Cupincin (hypothetical protein OsI_13867) (enzyme, UniProt B8AL97 35-470, looked up, Cupincin, hypothetical protein OsI_13867 of Oryza sativa L., 436 residues and 48492.94 Da in the database entry; The native protein runs in SDS-PAGE as three polypeptides (about 34.5, 26.9 and 15.9 kDa) that all match OsI_13867; also called purified protease from rice bran; source: purified from rice bran (variety IR-64): ammonium sulphate fractionation (40-80%), Sephadex G-150) SRRGEREEEDERRRHGGEGGRPYHFGEESFRHWTRTRHGRFSVLERFPDEQVVGAAVGGYRVAVLEAAPRAFLQPSHYDADEVFYVKEGEGVIVLLREGRKESFCVREGDAMVIPAGAIVYSANTHSSKWFRVVMLLNPVSTPGHFEEYFPVGGDRPESFFSAFSDDVLQAAFNTRREELEKVFERQREGGEITTAPEEQIRELSKSCSRGGGGGSGSEWEIKPSSLTGKSPYFSNNHGKLFELTGDECRHLKKLDLQIGLANITRGSMIAPNYNTRATKLAVVLQGSGYFEMACPHVSGGGSSERREREREHGRRREEEQGEEEHGERGEKARRYHKVRAQVREGSVIVIPASHPATIVASEGESLAVVCFFVGANHDEKVFLAGRNSPLRQLDDPAKKLVFGGSAAREADRVLAAQPEQILLRGPHGRGSVSDM", "values": [{"measurement": "stoichiometry N", "value": 3}]}
